T1: recombinant human ASM protein (human, UniProt P17405 47-630)
T1 construct: Recombinant human ASM in solution; also called acid sphingomyelinase (ASM) protein
T1 sequence: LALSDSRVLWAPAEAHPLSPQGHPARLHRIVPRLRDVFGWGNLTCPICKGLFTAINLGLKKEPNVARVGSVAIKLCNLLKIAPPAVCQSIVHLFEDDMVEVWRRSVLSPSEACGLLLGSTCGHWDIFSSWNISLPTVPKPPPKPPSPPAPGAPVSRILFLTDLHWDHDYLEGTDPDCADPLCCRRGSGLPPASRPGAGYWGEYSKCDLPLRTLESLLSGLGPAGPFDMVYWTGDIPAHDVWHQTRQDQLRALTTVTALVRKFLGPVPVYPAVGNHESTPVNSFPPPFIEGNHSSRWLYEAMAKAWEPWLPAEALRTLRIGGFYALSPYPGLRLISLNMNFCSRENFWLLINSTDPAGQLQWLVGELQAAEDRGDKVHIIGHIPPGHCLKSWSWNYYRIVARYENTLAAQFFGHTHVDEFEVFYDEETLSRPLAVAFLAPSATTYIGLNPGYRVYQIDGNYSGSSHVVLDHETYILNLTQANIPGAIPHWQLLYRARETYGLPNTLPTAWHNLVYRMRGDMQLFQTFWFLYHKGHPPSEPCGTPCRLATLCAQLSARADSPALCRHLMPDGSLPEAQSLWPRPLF


target: T1, recombinant human ASM protein; test: BLI (Octet), antibody on AHC sensor
Method: The binding affinity, to the ASM protein, of the produced antibodies specifically binding to the ASM protein and the interactive dynamics therebetween were measured using an Octet® QK384 system (Pall Life Sciences).
First, an antibody specifically binding to the ASM protein produced in Example 1 was captured using an anti-human IgG Fc capture (AHC) biosensor, and 1.25, 2.5, 5, 10, or 20 nM recombinant human ASM protein solution was added thereto. […] The association constant (Kₐ), dissociation constant (Kd), and equilibrium dissociation constant (KD) for each antibody were determined using Octet® analysis software (Pall Life® Sciences). As a result, the binding affinities, to the human ASM protein, of the antibodies with mutations in the heavy chain CDR regions of the antibody #9104 as depicted in Table 1 are shown in Table 5, and the binding affinities, to the human ASM protein, of the antibodies with mutations of the light chain CDR regions in the antibody #9104 as depicted in Table 2 are shown in Table 6.
After the small-scale expression in the ExpiCHO cell line as described above, the binding affinity to the human ASM protein was investigated as described in Experimental Example 1. Specifically, the antibody produced by a combination of #9104v-H33 heavy chain variable region and #9104v-L23 light chain variable region was not expressed and thus excluded in the analysis of binding affinity to ASM protein.

Binder | Kd [nM] | koff [s⁻¹] | kon [M⁻¹ s⁻¹]
#9104a-A1 (antibody, human IgG4 S228P, lambda, V domains shown, VH of #9104v-H10 with VL of #9104v-L20; full-length IgG, lambda) VH: EVQLLESGGGLVQPGGSLRLSCAASGFTFSNYYMSWVRQAPGKGLEWVSGIYYGNGIPYYADSVKDRFTISRDNSKNTLYLQMNSLRAEDTAVYYCARDTPGFDYWGQGTLVTVSS VL: QSVLTQPPSASGTPGQRVTISCTGSSSNIGNNAVNWYQQLPGTAPKLLIYYDMFRPGGVPDRFSGSKSGTSASLAISGLRSEDEADYYCGAWDYSLSAYVFGGGTKLTVLG | 0.0518 | 1.14e-05 | 220000
#9104a-B4 (antibody, human IgG4 S228P, lambda, V domains shown, VH of #9104v-H17 with VL of #9104v-L21; full-length IgG, lambda) VH: EVQLLESGGGLVQPGGSLRLSCAASGFTFSNYYMSWVRRAPGKGLEWVSGIYYGSGTPYYAASVKGRFTISRDNSKNTLYLQMNSLRAEDTAVYYCARDTPGFDYWGQGTLVTVSS VL: QSVLTQPPSASGTPGQRVTISCTGSSSNIGNNAVNWYQQLPGTAPKLLIYYDMFRPNGVPDRFSGSKSGTSASLAISGLRSEDEADYYCGAWDYSLSAYVFGGGTKLTVLG | 0.153 | 3.74e-05 | 245000
#9104a-B1 (antibody, human IgG4 S228P, lambda, V domains shown, VH of #9104v-H10 with VL of #9104v-L21; full-length IgG, lambda) VH: EVQLLESGGGLVQPGGSLRLSCAASGFTFSNYYMSWVRQAPGKGLEWVSGIYYGNGIPYYADSVKDRFTISRDNSKNTLYLQMNSLRAEDTAVYYCARDTPGFDYWGQGTLVTVSS VL: QSVLTQPPSASGTPGQRVTISCTGSSSNIGNNAVNWYQQLPGTAPKLLIYYDMFRPNGVPDRFSGSKSGTSASLAISGLRSEDEADYYCGAWDYSLSAYVFGGGTKLTVLG | 0.137 | 3.45e-05 | 253000
#9104a-B8 (antibody, human IgG4 S228P, lambda, V domains shown, VH of #9104v-H33 with VL of #9104v-L21; full-length IgG, lambda) VH: EVQLLESGGGLVQPGGSLRLSCAASGFTFSNYYMSWVRQAPGKGLEWVSGVYYPSGNPYYADSVKGRFTISRDNSKNTLYLQMNSLRAEDTAVYYCARDTPGFDYWGQGTLVTVSS VL: QSVLTQPPSASGTPGQRVTISCTGSSSNIGNNAVNWYQQLPGTAPKLLIYYDMFRPNGVPDRFSGSKSGTSASLAISGLRSEDEADYYCGAWDYSLSAYVFGGGTKLTVLG | 0.28 | 6.44e-05 | 230000
#9104a-A6 (antibody, human IgG4 S228P, lambda, V domains shown, VH of #9104v-H27 with VL of #9104v-L20; full-length IgG, lambda) VH: EVQLLESGGGLVQPGGSLRLSCAASGFTFSNYYMSWVRQAPGKGLEWVSGTYYDSGYVYYADSVKGRFTISRDNSKNTLYLQMNSLRAEDTAVYYCARDTPGFDYWGQGTLVTVSS VL: QSVLTQPPSASGTPGQRVTISCTGSSSNIGNNAVNWYQQLPGTAPKLLIYYDMFRPGGVPDRFSGSKSGTSASLAISGLRSEDEADYYCGAWDYSLSAYVFGGGTKLTVLG | 0.768 | 6.96e-05 | 90600
#9104a-B2 (antibody, human IgG4 S228P, lambda, V domains shown, VH of #9104v-H11 with VL of #9104v-L21; full-length IgG, lambda) VH: EVQLLESGGGLVQPGGSLRLSCAASGFTFSNYYMSWVRQAPGKGLEWVSGIYYGSGIPYYADSVKERFTISRDNSKNTLYLQMNSLRAEDTAVYYCARDTPGFDYWGQGTLVTVSS VL: QSVLTQPPSASGTPGQRVTISCTGSSSNIGNNAVNWYQQLPGTAPKLLIYYDMFRPNGVPDRFSGSKSGTSASLAISGLRSEDEADYYCGAWDYSLSAYVFGGGTKLTVLG | 0.114 | 3.03e-05 | 266000
#9104a-A5 (antibody, human IgG4 S228P, lambda, V domains shown, VH of #9104v-H19 with VL of #9104v-L20; full-length IgG, lambda) VH: EVQLLESGGGLVQPGGSLRLSCAASGFTFSNYYMSWVRQAPGKGLEWVSGIYYGSGVPYYADSVKGRFTISRDNSKNTLYLQMNSLRAEDTAVYYCARDTPGFDYWGQGTLVTVSS VL: QSVLTQPPSASGTPGQRVTISCTGSSSNIGNNAVNWYQQLPGTAPKLLIYYDMFRPGGVPDRFSGSKSGTSASLAISGLRSEDEADYYCGAWDYSLSAYVFGGGTKLTVLG | 0.16 | 3.93e-05 | 246000
#9104a-A3 (antibody, human IgG4 S228P, lambda, V domains shown, VH of #9104v-H13 with VL of #9104v-L20; full-length IgG, lambda) VH: EVQLLESGGGLVQPGGSLRLSCAASGFTFSNYYMSWVRQAPGKGLEWVSGIYYGSGIPYYANSVKGRFTISRDNSKNTLYLQMNSLRAEDTAVYYCARDTPGFDYWGQGTLVTVSS VL: QSVLTQPPSASGTPGQRVTISCTGSSSNIGNNAVNWYQQLPGTAPKLLIYYDMFRPGGVPDRFSGSKSGTSASLAISGLRSEDEADYYCGAWDYSLSAYVFGGGTKLTVLG | 0.0277 | 5.48e-06 | 198000
#9104a-B3 (antibody, human IgG4 S228P, lambda, V domains shown, VH of #9104v-H13 with VL of #9104v-L21; full-length IgG, lambda) VH: EVQLLESGGGLVQPGGSLRLSCAASGFTFSNYYMSWVRQAPGKGLEWVSGIYYGSGIPYYANSVKGRFTISRDNSKNTLYLQMNSLRAEDTAVYYCARDTPGFDYWGQGTLVTVSS VL: QSVLTQPPSASGTPGQRVTISCTGSSSNIGNNAVNWYQQLPGTAPKLLIYYDMFRPNGVPDRFSGSKSGTSASLAISGLRSEDEADYYCGAWDYSLSAYVFGGGTKLTVLG | 0.0351 | 8.23e-06 | 234000
#9104a-A4 (antibody, human IgG4 S228P, lambda, V domains shown, VH of #9104v-H17 with VL of #9104v-L20; full-length IgG, lambda) VH: EVQLLESGGGLVQPGGSLRLSCAASGFTFSNYYMSWVRRAPGKGLEWVSGIYYGSGTPYYAASVKGRFTISRDNSKNTLYLQMNSLRAEDTAVYYCARDTPGFDYWGQGTLVTVSS VL: QSVLTQPPSASGTPGQRVTISCTGSSSNIGNNAVNWYQQLPGTAPKLLIYYDMFRPGGVPDRFSGSKSGTSASLAISGLRSEDEADYYCGAWDYSLSAYVFGGGTKLTVLG | 0.162 | 3.54e-05 | 219000
#9104a-B5 (antibody, human IgG4 S228P, lambda, V domains shown, VH of #9104v-H19 with VL of #9104v-L21; full-length IgG, lambda) VH: EVQLLESGGGLVQPGGSLRLSCAASGFTFSNYYMSWVRQAPGKGLEWVSGIYYGSGVPYYADSVKGRFTISRDNSKNTLYLQMNSLRAEDTAVYYCARDTPGFDYWGQGTLVTVSS VL: QSVLTQPPSASGTPGQRVTISCTGSSSNIGNNAVNWYQQLPGTAPKLLIYYDMFRPNGVPDRFSGSKSGTSASLAISGLRSEDEADYYCGAWDYSLSAYVFGGGTKLTVLG | < 0.001 | < 1e-07 | 243000

Continued by falling Kd, values first:

Kd [nM] | koff [s⁻¹] | kon [M⁻¹ s⁻¹] | Binder
1.14 | 9.41e-05 | 82900 | #9104a-B6 (antibody, human IgG4 S228P, lambda, V domains shown, VH of #9104v-H27 with VL of #9104v-L21; full-length IgG, lambda) VH: EVQLLESGGGLVQPGGSLRLSCAASGFTFSNYYMSWVRQAPGKGLEWVSGTYYDSGYVYYADSVKGRFTISRDNSKNTLYLQMNSLRAEDTAVYYCARDTPGFDYWGQGTLVTVSS VL: QSVLTQPPSASGTPGQRVTISCTGSSSNIGNNAVNWYQQLPGTAPKLLIYYDMFRPNGVPDRFSGSKSGTSASLAISGLRSEDEADYYCGAWDYSLSAYVFGGGTKLTVLG
0.237 | 4.51e-05 | 191000 | #9104a-A8 (antibody, human IgG4 S228P, lambda, V domains shown, VH of #9104v-H33 with VL of #9104v-L20; full-length IgG, lambda) VH: EVQLLESGGGLVQPGGSLRLSCAASGFTFSNYYMSWVRQAPGKGLEWVSGVYYPSGNPYYADSVKGRFTISRDNSKNTLYLQMNSLRAEDTAVYYCARDTPGFDYWGQGTLVTVSS VL: QSVLTQPPSASGTPGQRVTISCTGSSSNIGNNAVNWYQQLPGTAPKLLIYYDMFRPGGVPDRFSGSKSGTSASLAISGLRSEDEADYYCGAWDYSLSAYVFGGGTKLTVLG
0.163 | 4.07e-05 | 250000 | #9104a-B7 (antibody, human IgG4 S228P, lambda, V domains shown, VH of #9104v-H31 with VL of #9104v-L21; full-length IgG, lambda) VH: EVQLLESGGGLVQPGGSLRLSCAASGFTFSNYYMSWVRQAPGKGLEWVSGVYYGSGTPYYADSVKGRFTISRDNSKNTLYLQMNSLRAEDTAVYYCARDTPGFDYWGQGTLVTVSS VL: QSVLTQPPSASGTPGQRVTISCTGSSSNIGNNAVNWYQQLPGTAPKLLIYYDMFRPNGVPDRFSGSKSGTSASLAISGLRSEDEADYYCGAWDYSLSAYVFGGGTKLTVLG
0.0961 | 1.98e-05 | 206000 | #9104a-A2 (antibody, human IgG4 S228P, lambda, V domains shown, VH of #9104v-H11 with VL of #9104v-L20; full-length IgG, lambda) VH: EVQLLESGGGLVQPGGSLRLSCAASGFTFSNYYMSWVRQAPGKGLEWVSGIYYGSGIPYYADSVKERFTISRDNSKNTLYLQMNSLRAEDTAVYYCARDTPGFDYWGQGTLVTVSS VL: QSVLTQPPSASGTPGQRVTISCTGSSSNIGNNAVNWYQQLPGTAPKLLIYYDMFRPGGVPDRFSGSKSGTSASLAISGLRSEDEADYYCGAWDYSLSAYVFGGGTKLTVLG
0.0354 | 8.13e-06 | 230000 | #9104a-A7 (antibody, human IgG4 S228P, lambda, V domains shown, VH of #9104v-H31 with VL of #9104v-L20; full-length IgG, lambda) VH: EVQLLESGGGLVQPGGSLRLSCAASGFTFSNYYMSWVRQAPGKGLEWVSGVYYGSGTPYYADSVKGRFTISRDNSKNTLYLQMNSLRAEDTAVYYCARDTPGFDYWGQGTLVTVSS VL: QSVLTQPPSASGTPGQRVTISCTGSSSNIGNNAVNWYQQLPGTAPKLLIYYDMFRPGGVPDRFSGSKSGTSASLAISGLRSEDEADYYCGAWDYSLSAYVFGGGTKLTVLG

Reference: US20260201064A1 (ISU ABXIS, published 2026)
